# From patent US20220288204A1, “DOSAGE AND ADMINISTRATION OF ANTI-ERBB3 (HER3) MONOCLONAL ANTIBODIES TO TREAT TUMORS ASSOCIATED WITH NEUREGULIN 1 (NRG1) GENE FUSIONS” (ELEVATION ONCOLOGY, INC., priority 2021, published 2022)
# Experiments:
# [1] = test system: KRAS wt pancreatic ductal adenocarcinoma with ATP1B1-NRG1 gene fusion; experiment: Compassionate access case, MoST program; type: in vivo, human
# Experimental: FIGS. 10A-10B are representative computed tomography (CT) images of a liver metastasis in a patient with KRAS WT pancreatic cancer that harbors an ATP1B1-NRG1 gene fusion. The patient was treated with seribantumab.
# In brief, patients with advanced solid tumors of any histology undergo molecular screening. Genomic alterations are reviewed at molecular tumor boards to identify appropriate biomarker-matched therapeutic sub-studies. Seven GI cancer patients with durable clinical benefit were identified by case review, including a patient with KRAS WT pancreatic cancer harboring an ATP1B1-NRG1 gene fusion. Neuregulin 1 (NRG1) gene fusion proteins are an important oncogenic driver, enriched amongst KRAS wild-type PDAC (8-10%) (Aguirre A J., Clin. Cancer Res. 2019 August; 25(15)). NRG1 is the predominant ligand of ERBB3. These fusion proteins drive tumor progression through aberrant ERBB3 activation. […] The patient had previously exhausted available therapies and had been treated as follows: (1) October 2019 to January 2020, FOLFIRINOX, (2) January 2020 to June 2020, FOLFIRI, (3) June 2020 to August 2020, Gemcitabine/Abraxane, (4) August 2020 to December 2020, FOLFIRI.
# [2] = test system: HER3 and AKT phosphorylation in H6c7-ATP1B1-NRG1 cells; experiment: Western blotting of HER3 and AKT phosphorylation; type: cell-based, human; conditions: serum-starved 24 hours
# From the text: (§1) H6C7-EV (empty vector) and H6C7-ATP1B1-NRG1 cells were profiled for activated intracellular kinases using phospho-proteomic arrays (FIG. 7A). H6C7-EV and H6C7 cells with the indicated NRG1 fusions were profiled for activated receptor tyrosine kinases (RTK) using phospho-RTK arrays (FIG. 7B). Quantitation of phosphorylated EGFR, HER2, and HER3 is shown (FIG. 7C). Western blot analysis of cell extracts from H6C7-EV and H6C7 cells expressing NRG1 fusions (FIGS. 7D-E). […] All cells were serum-started for 24 hours prior to experimentation.
# (§2) Models of isogenic pancreatic cancer cells with NRG1 fusions by lentiviral-mediated cDNA expression of ATP1B1-NRG1 and SLC3A2-NRG1 fusions in immortalized human pancreatic ductal cells (H6c7) were developed. […] Western blotting analysis was used to evaluate protein phosphorylation and expression. The presence of NRG1 fusions was confirmed by reverse transcription polymerase chain reaction (RT-PCR) and next-generation sequencing (NGS).
# (§3) There was no regression of afatinib-treated pancreatic PDX tumors. […] This was confirmed using a human-specific GAPH antibody.
# [3] = test system: HER3 and AKT phosphorylation in H6c7-SLC3A2-NRG1 cells; experiment: Western blotting of HER3 and AKT phosphorylation; type: cell-based, human; conditions: serum-starved 24 hours
# From the text: as §1, §2, §3
molecule,measurement,setting,value
seribantumab: anti-ERBB3 (HER3) fully human monoclonal antibody; heavy and light chains SEQ ID NOs: 12 and 13 (antibody) heavy: EVQLLESGGGLVQPGGSLRLSCAASGFTFSHYVMAWVRQAPGKGLEWVSSISSSGGWTLYADSVKGRFTISRDNSKNTLYLQMNSLRAEDTAVYYCTRGLKMATIFDYWGQGTLVTVSSASTKGPSVFPLAPCSRSTSESTAALGCLVKDYFPEPVTVSWNSGALTSGVHTFPAVLQSSGLYSLSSVVTVPSSNFGTQTYTCNVDHKPSNTKVDKTVERKCCVECPPCPAPPVAGPSVFLFPPKPKDTLMISRTPEVTCVVVDVSHEDPEVQFNWYVDGVEVHNAKTKPREEQFNSTFRVVSVLTVVHQDWLNGKEYKCKVSNKGLPAPIEKTISKTKGQPREPQVYTLPPSREEMTKNQVSLTCLVKGFYPSDIAVEWESNGQPENNYKTTPPMLDSDGSFFLYSKLTVDKSRWQQGNVFSCSVMHEALHNHYTQKSLSLSPGK light: QSALTQPASVSGSPGQSITISCTGTSSDVGSYNVVSWYQQHPGKAPKLIIYEVSQRPSGVSNRFSGSKSGNTASLTISGLQTEDEADYYCCSYAGSSIFVIFGGGTKVTVLGQPKAAPSVTLFPPSSEELQANKATLVCLVSDFYPGAVTVAWKADGSPVKVGVETTKPSKQSNNKYAASSYLSLTPEQWKSHRSYSCRVTHEGSTVEKTVAPAECS,liver metastasis NTL1 liver seg 8 on CT,"[1]; June 2021, 26×26 mm before seribantumab",resolved
same,duration of ongoing treatment at data cutoff,[1]; one patient,≥ 8 months
same,tumor response,"[1]; person, treated from December 2020",partial response
same,HER3 and AKT phosphorylation,[2],dose-dependent inhibition
same,HER3 and AKT phosphorylation,[3],dose-dependent inhibition
